Reference: patent publication US20070020687A1 (CYTOSKELETON, published 2007)

B1: constitutively active recombinant Cdc42, glutamine 61 to leucine, histidine tagged (enzyme)
chain: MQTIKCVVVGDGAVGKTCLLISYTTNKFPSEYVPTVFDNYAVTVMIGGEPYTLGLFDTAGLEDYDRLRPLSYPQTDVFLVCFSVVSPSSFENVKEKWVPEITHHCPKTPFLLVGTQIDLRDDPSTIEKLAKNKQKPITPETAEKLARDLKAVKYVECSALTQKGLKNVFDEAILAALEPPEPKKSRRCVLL
notes: Bought protein; also called Cdc42 (61L); constitutively active Cdc42; not shown: histidine tag
B2: ROCK1 effector-GBD peptide, histidine tagged, with engineered carboxy terminal cysteine (other, human)
chain: EAEQYFSTLYKTQVKELKEEIEEKNRENLKKIQELQNEKETLATQLDLAETKAESEQLARGLLEEQYFELTQESKKAASRNRQEITDKDHTVSRLEEANSMLTKDIEILRRENEELTEKMKKAEEEYKLEKEEEISNLKAAFEKNINTERTLKTQAVNKLAEIMNRKDFKIDRKKANTC
notes: range 847-1024; Linked covalently to maleimide plates through the C-terminal cysteine; also called ROCK1-GBD; ROCK-GBD; not shown: N-terminal histidine tag of vector pRSET-A
B3: POSH effector-GBD peptide, histidine tagged (other)
chain: KHSDTKKNTKKRHSFTSLTMANKSSQASQNRHSMEISPPVLISSSNPTAAARISELSGLSCSAPSQVHISTTG
notes: range 291-363; Linked to maleimide plates through the naturally occurring cysteine at position 351; also called POSH-GBD; POSH-His; not shown: N-terminal histidine tag of vector pRSET-A
B4: PAK-GBD-GST peptide (other)
chain: KEKERPEISLPSDFEHTIHVGFDAVTGEFTGMPEQWARLLQTSNITKSEQKKNPQAVLDVLEFYNSKKTSNSQKYMSFTDKSAEC
notes: range 68-151; also called PAK1-GST; PAK-GST; not shown: Glutathione S transferase tag of vector pGEX-4T with thrombin site, N-terminal
B5: rhotekin-Cys effector-GBD as tested in the G-LISA (other, mouse)
chain: ILEDLNMLYIRQMALSLEDTELQRKLDHEIRMRDGAEKLLAALSQREQALEATKSLLVSNSRILSYMGELQRRKEAQVLEKTGC
notes: range 7-89; also called modified effector-GBD; Rhotekin-Cys-no tag
B6: ROCK-GST peptide (other)
chain: EAEQYFSTLYKTQVKELKEEIEEKNRENLKKIQELQNEKETLATQLDLAETKAESEQLARGLLEEQYFELTQESKKAASRNRQEITDKDHTVSRLEEANSMLTKDIEILRRENEELTEKMKKAEEEYKLEKEEEISNLKAAFEKNINTERTLKTQAVNKLAEIMNRKDFKIDRKKANT
notes: domain: GBD; a GST fusion of ROCK is described nowhere else; also called ROCK-GBD; RhoA effector ROCK-GBD; not shown: Glutathione S transferase tag
B7: WASP effector-GBD peptide, histidine tagged, with engineered carboxy terminal cysteine (other, human)
chain: DIQNPDITSSRYRGLPAPGPSPADKKRSGKKKISKADIGAPSGFKHVSHVGWDPQNGFDVNNLDPDLRSLFSRAGISEAQLTDAETSKLIYDFIEDQGGLEAVRQEMRRQEPLPPPPPPSRC
notes: range 201-321; Linked covalently to maleimide plates; also called WASP-GBD; WASP-His; not shown: N-terminal histidine tag of vector pRSET-A

What was measured:
[1] = biological target: B7; assay: G-LISA on maleimide plates (FIG. 2)
Experimental: (§1) Active Rho protein (typically 7-15 μg total cell lysate or 1-5 ng of constitutively active recombinant protein) were either added directly to the effector bound G-LISA plate (Rac1 and Cdc42 G-LISAs) or diluted with an equal volume of Binding Buffer (20% PEG 8000, Sigma, St. Louis, Mo.) prior to adding to effector bound plates (RhoA G-LISA). The reactions were incubated for 30 minutes at 4° .C on a microtiter titer plate shaker after which wells were washed once with 200 μl of PBST (PBS pH 7.2, 0.05% Tween-20) and immediately treated with 200 μl of Antigen Presenting Buffer (1% trichloroacetic acid (TCA)) for 2-5 minutes at room temperature. […] For RhoA and Rac1 reactions goat anti-mouse secondary at 2 μg/ml is used, for RhoA,B,C reactions donkey anti-chicken secondary at 0.5 μg/ml is used, for Cdc42 reactions goat anti-sheep secondary antibody is used at 0.5 μg/ml. After three washes each of 200 μl PBST the activated Rho proteins are detected using absorbance or luminescence detection as described below.
(§2) Referring to FIG. 2C, lysis buffer only (Blank), 5 ng of Cdc42 (61L) or Rac1 (61L) were subjected to a Cdc42 G-LISA assay as detailed in materials and methods (Example 2), and Cdc42 signal was detected by absorbance at 490 nm as described in materials and methods (Example 2).

[2] = biological target: T1, constitutively active recombinant RhoA, glutamine 63 to leucine, histidine tagged (Homo sapiens (Human), UniProt P61586 1-193, limits assumed); assay: RhoA G-LISA, ROCK1-GBD on maleimide plate, detection with anti-RhoA clone 384, luminometry
T1 construct: Bought protein; unable to hydrolyse GTP; also called RhoA (63L); R63; not shown: histidine tag
Experimental: as §1, with “The” for “Active Rho protein (typically 7-15 μg total cell lysate or 1-5 ng of constitutively active recombinant protein) were either added directly to the effector bound G-LISA plate (Rac1 and Cdc42 G-LISAs) or diluted with an equal volume of Binding Buffer (20% PEG 8000, Sigma, St. Louis, Mo.) prior to adding to effector bound plates (RhoA G-LISA). The”

[3] = biological target: active RhoA, sample not stated (Homo sapiens (Human), UniProt P61586 1-190, limits assumed); assay: G-LISA with and without TCA Antigen Presenting Buffer
[4] = biological target: T2, endogenous RhoA of human platelet extract loaded with GTPγS (human, UniProt P61586 1-190); assay: RhoA G-LISA on ROCK-GBD maleimide plate, 15 µg GDP or GTPγS loaded platelet extract, Binding Buffer, luminometry
T2 construct: also called active RhoA (GTPγS); GTPγS RhoA
Experimental: as §1

[5] = biological target: T2, endogenous RhoA of human platelet …; assay: RhoA G-LISA on ROCK plate, loaded platelet extracts, treatment with 10% TCA for 2 minutes, detection with clone 384, luminescence
Experimental: Platelet cell lysates loaded with GTPγS or GDP nucleotides (10 μg total cell lysate per assay) were diluted with an equal volume of Binding Buffer (20% PEG 8000, Sigma, St. Louis, Mo.) prior to adding to ROCK effector bound plates. The reactions were incubated for 30 minutes at 4° C. on a microtiter titer plate shaker after which wells were washed once with 200 μl of PBST (PBS pH 7.2, 0.05% Tween-20) and immediately treated with one of the following chemical/physical treatments: microwaving for 3 minutes in the presence of 200 μl PBS; microwaving for 3 minutes dry; microwaving for 3 minutes in the presence of 200 μl of 8M urea; 200 μl methanol for 2 minutes; 200 pl ethanol for 2 minutes; 200 μl of 0.5% SDS for 2 minutes, 200 μl of 10% trichloroacetic acid (TCA) for 2 minutes at room temperature. […] After three washes each of 200 μl PBST, the activated Rho proteins were detected using luminescence detection. Luminescence was measured in a SpectroFluor Plus (Techan Inc.) after addition of 50 μl of lumigen reagent (Lumigen Inc., Catalog # PSA-100).
After extract incubation, the plate was treated with MW+PBS, MW/Dry, MW/8 M urea, methanol, ethanol, 0.5% SDS, 10% TCA or no treatment followed by antibody incubation and luminescence detection. […]

[6] = biological target: active Rac1, sample not stated (Homo sapiens (Human), UniProt P63000 1-189); assay: G-LISA with and without TCA Antigen Presenting Buffer
[7] = biological target: T3, constitutively active recombinant Rac1, glutamine 61 to leucine, histidine tagged (Homo sapiens (Human), UniProt P63000 1-192); assay: Rac1 G-LISA on POSH plate with 2 minute Antigen Presenting Buffer (1% TCA), absorbance 490 nm
Experimental: The reactions were incubated for 30 minutes at 4° C. on a microtiter titer plate shaker after which wells were washed once with 200 μl of PBST (PBS pH 7.2, 0.05% Tween-20) and immediately treated with 200 μl of Antigen Presenting Buffer (1% trichloroacetic acid (TCA)) for 2-5 minutes at room temperature. Wells were then washed three times with 200 μl each of PBST and primary Rac1 antibody was added at 1 μg/ml and incubated at room temperature for 45 minutes. Wells were washed three times with 200 μl each of PBST and incubated with anti-mouse secondary antibody for 45 minutes at room temperature. After three washes each of 200 μl PBST, the activated Rho proteins were detected using absorbance detection. Absorbance was measured at OD₄₉₀ in a spectrophotometer (SpectraMax 250, Molecular Devices) after addition of 50 μl of OPD substrate (Sigma Catalog # P9187) for 15 minutes at 37° C. followed by addition of 50 μl of stop buffer (1M sulfuric acid).
Referring to FIG. 5B, lysis buffer only (Blank) or 5 ng of Rac1 (61L) were subjected to Rac1 G-LISA assay as described in the materials and methods except that the assays were performed either with or without Antigen Presenting Buffer treatment (1% TCA or No APB respectively) Rac1 signal was detected by absorbance at 490 nm as described in the materials and methods.

[8] = biological target: T3, constitutively active recombinant Rac1, …; assay: Rac1 G-LISA, POSH-GBD on maleimide plate, detection with anti-Rac1 GL06, absorbance 490 nm
Experimental: as §1

[9] = biological target: T4, endogenous Rac1 of human platelet extract loaded with GTPγS (human, UniProt P63000 1-189); assay: Rac1 G-LISA on POSH-GBD maleimide plate, GDP or GTPγS loaded platelet extract, absorbance 490 nm
Experimental: as §1

[10] = biological target: T4, endogenous Rac1 of human platelet …; assay: Rac1 G-LISA, PAK-GBD-GST on glutathione plate, loaded platelet extracts, absorbance 490 nm
Experimental: For RhoA and Rac1 reactions goat anti-mouse secondary at 2 μg/ml is used, for RhoA,B,C reactions donkey anti-chicken secondary at 0.5 μg/ml is used, for Cdc42 reactions goat anti-sheep secondary antibody is used at 0.5 μg/ml. After three washes each of 200 μl PBST the activated Rho proteins are detected using absorbance or luminescence detection as described below.
(§3) Plates were incubated at room temperature for 1 hour. Plates were washed twice in PBS and blocked by addition of 0.1% BSA in PBS pH 7.2 for 1 hour at room temperature.

[11] = biological target: T3, constitutively active recombinant Rac1, …; assay: competition in Rac1: POSH G-LISA, 5 ng Rac1 (61L), POSH-GBD maleimide plate, PAK-GBD-GST at 0 to 10 µM
[12] = biological target: T3, constitutively active recombinant Rac1, …; assay: Rac1 G-LISA, PAK-GBD-GST on glutathione plate, absorbance 490 nm
Experimental: as §1, §3

[13] = biological target: T1, constitutively active recombinant RhoA, …; assay: G-LISA with rhotekin-Cys effector-GBD on plate, data not shown
[14] = biological target: T3, constitutively active recombinant Rac1, …; assay: competition in Rac1: POSH G-LISA, 5 ng Rac1 (61L), POSH-GBD maleimide plate, ROCK-GST as negative control inhibitor
[15] = biological target: T3, constitutively active recombinant Rac1, …; assay: competition in Rac1: POSH G-LISA, 5 ng Rac1 (61L), POSH-GBD maleimide plate, reference PAK-GBD-GST
[16] = biological target: B1; assay: Cdc42 G-LISA, WASP-GBD on maleimide plate, detection with anti-Cdc42 ACD02, absorbance 490 nm
Experimental: as §1, §2

T2 sequence (P61586 1-190 limits assumed): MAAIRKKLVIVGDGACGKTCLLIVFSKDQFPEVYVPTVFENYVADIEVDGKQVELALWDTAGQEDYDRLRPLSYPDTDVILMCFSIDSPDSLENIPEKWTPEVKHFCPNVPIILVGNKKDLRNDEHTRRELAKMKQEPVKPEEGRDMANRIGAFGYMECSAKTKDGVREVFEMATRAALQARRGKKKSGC
T1 sequence (P61586 whole entry Q63L): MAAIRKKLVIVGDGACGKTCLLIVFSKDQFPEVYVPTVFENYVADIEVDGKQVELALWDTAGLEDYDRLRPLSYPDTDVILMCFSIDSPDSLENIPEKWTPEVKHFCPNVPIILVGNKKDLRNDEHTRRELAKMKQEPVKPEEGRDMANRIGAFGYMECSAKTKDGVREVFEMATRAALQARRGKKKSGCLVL
active RhoA, sample not stated, sequence (P61586 1-190 limits assumed): as the sequence (P61586 1-190 limits assumed) above

Binder: B1
- binding result [1]: binds

Binder: B2
- signal fold above background (buffer only) [2]: 6 fold
- loss of signal in the absence of TCA [3]: > 80%
- fold signal of active (GTPγS) RhoA over inactive (GDP) RhoA [4]: 7 fold
- fold signal of GTPγS RhoA over GDP RhoA [5]: ~8 fold

Binder: B3
- loss of signal in the absence of TCA [6]: > 80%
- signal fold above background [7]: 7 fold
- signal fold above background [8]: 9 fold
- fold signal of active (GTPγS) Rac1 over inactive (GDP) Rac1 [9]: 30 fold

Binder: B4
- loss of signal in the absence of TCA [6]: > 80%
- fold signal of GTPγS (active) over GDP (inactive) loaded platelet extract [10]: 8 fold
- IC50 [11]: ~0.1 µM
- signal fold above background (buffer only) [12]: 8 fold

Binder: B5
- signal fold above background [13]: 6 fold

Binder: B6
- IC50 [14]: 8 µM
- fold IC50 against PAK [15]: ~80 fold

Binder: B7
- signal fold above background [16]: 5 fold
